This note sets out measurements from PMC5142293, “Characterization of spermidine hydroxycinnamoyl transferases from eggplant (Solanum melongena L.) and its wild relative Solanum richardii Dunal” (Horticulture Research, 2016).

Holding throughout (test): spectrophotometric acylation assay, microplate (absorbance loss of CoA ester)
Conditions in all cases: 2.5 mM polyamine acceptor (text b49: spermidine; table title and b21: spermine), pH 9.0, 30 °C, Tris-HCl, 10 mM EDTA

Substrate in data set [1]: COc1cc(/C=C/C(=O)SCCNC(=O)CCNC(=O)[C@H](O)C(C)(C)COP(=O)(O)OP(=O)(O)OC[C@H]2O[C@@H](n3cnc4c(N)ncnc43)[C@H](O)[C@@H]2OP(=O)(O)O)ccc1O
The class given is biochemical, Solanum virginianum. An excerpt:
(§1) spectrophotometric acylation assay, microplate (absorbance loss of CoA ester) on SmSHT

Substrate in data set [2]: CC(C)(COP(=O)(O)OP(=O)(O)OC[C@H]1O[C@@H](n2cnc3c(N)ncnc32)[C@H](O)[C@@H]1OP(=O)(O)O)[C@@H](O)C(=O)NCCC(=O)NCCSC(=O)/C=C/c1ccc(O)cc1
It is filed as biochemical, Solanum virginianum.
Description: as §1

Substrate in data set [3]: CC(C)(COP(=O)(O)OP(=O)(O)OC[C@H]1O[C@@H](n2cnc3c(N)ncnc32)[C@H](O)[C@@H]1OP(=O)(O)O)[C@@H](O)C(=O)NCCC(=O)NCCSC(=O)/C=C/c1ccc(O)c(O)c1
The class given is biochemical, Solanum virginianum.
Description: as §1

Substrate in data set [4]: COc1cc(/C=C/C(=O)SCCNC(=O)CCNC(=O)[C@H](O)C(C)(C)COP(=O)(O)OP(=O)(O)OC[C@H]2O[C@@H](n3cnc4c(N)ncnc43)[C@H](O)[C@@H]2OP(=O)(O)O)ccc1O
The class given is biochemical, Solanum richardii. The text has this: (§2) spectrophotometric acylation assay, microplate (absorbance loss of CoA ester) on SrSHT

Substrate in data set [5]: CC(C)(COP(=O)(O)OP(=O)(O)OC[C@H]1O[C@@H](n2cnc3c(N)ncnc32)[C@H](O)[C@@H]1OP(=O)(O)O)[C@@H](O)C(=O)NCCC(=O)NCCSC(=O)/C=C/c1ccc(O)cc1
It is filed as biochemical, Solanum richardii.
Description: as §2

Substrate in data set [6]: CC(C)(COP(=O)(O)OP(=O)(O)OC[C@H]1O[C@@H](n2cnc3c(N)ncnc32)[C@H](O)[C@@H]1OP(=O)(O)O)[C@@H](O)C(=O)NCCC(=O)NCCSC(=O)/C=C/c1ccc(O)c(O)c1
It is filed as biochemical, Solanum richardii.
Description: as §2

Positions count from the first letter of the chain named. In names and notes the source's numbering stands.

B1: SmSHT (Solanum virginianum) (protein)
chain: MKVILKNHWVVKPAAPTWTGTVSLSEFDQTFAVTHVPTIYYYKFVQDFITSTDEIIKTLKTSLSEALVHFYPLAGRLRWISGSRLELECDASGVVLTEAETDAKLDDLDSFLLSPNYNSLFPRVDYTIPIDELPLLFVQLTKFQCGGIALSFAISHAVVDGHSALYFFSEWARLSRGEPLMFAPFHDRKVLRAGEPAIACPTFEHLQFNTPPLLIGKSSTENEKKKETKGSMLKLTKLQVEMLREKANQGRNLEDSRERSYTRYEVVTAHIWRCACKARGHKFEQPTNLCICVDIRRRMDPPLPSSYFGNAIVDVIATGASGDIVLSPLECAAKRVREAIKMVTSDYANSTINFLKKEEDLSKYQDIHAFRNKEGPFYGNPNLGVISWISLPVLGLDFGWGKEFHMSPGIHEYDGDCVILPDNEGDGSLTVAIVLQEAHVDAFKKFFYEDIEC
notes: full-length ORF, 453 residues, pET-32a(+) N-terminal His-tag (73 kDa with tag, 51 kDa predicted), E. coli, Ni-NTA purified
Take B1: in data set [1], the Michaelis constant (Km) – broadly, the concentration of substrate that gives half-maximal velocity – was 27.3 ± 5.6 µM; the kcat (commonly the maximal rate divided by the concentration of active sites) turned out to be 3.87 ± 0.205 s⁻¹; the catalytic efficiency (kcat/Km) (usually the turnover number divided by the Michaelis constant) is 142000 ± 8330 M⁻¹ s⁻¹. Besides, in data set [2], the Km came out at 29.6 ± 5.8 µM, the turnover number (kcat) came to 3.02 ± 0.122 s⁻¹ and the specificity constant (kcat/Km) was found to be 102000 ± 3330 M⁻¹ s⁻¹. Besides, in data set [3], the Michaelis-Menten constant (Km) came to 58.3 ± 1.7 µM, the kcat was 7.36 ± 0.185 s⁻¹ and the kcat/Km amounted to 127000 ± 3330 M⁻¹ s⁻¹.

B2: SrSHT (Solanum richardii) (protein)
chain: B1 chain with C200S, P286S, R297K, L326S, K402E
notes: full-length ORF, 453 residues, pET-32a(+) N-terminal His-tag (73 kDa with tag, 51 kDa predicted), E. coli, Ni-NTA purified; natural ortholog differing from SmSHT by C200S, P286S, R297K, L326S, K402E
For the protein B2, in data set [4], the Michaelis-Menten constant (Km) stood at 51.3 ± 10.6 µM, the kcat amounted to 6.88 ± 1 s⁻¹ and the specificity constant (kcat/Km) was 133000 ± 20000 M⁻¹ s⁻¹. Besides, in data set [5], the Km is 38.4 ± 3.3 µM, the catalytic constant (kcat) worked out at 4.33 ± 0.243 s⁻¹ and the kcat/Km amounted to 113000 ± 6670 M⁻¹ s⁻¹. Moreover, in data set [6], the Km worked out at 67.1 ± 7.6 µM, the turnover number (kcat) came to 10.1 ± 0.483 s⁻¹ and the specificity constant (kcat/Km) was determined as 150000 ± 6670 M⁻¹ s⁻¹.
